Experimental data reported in publication PMC3603003 (Molecular Plant, 2012).

Tests used:
SEC = target: the molecule itself; experiment: SEC
[1] = target: rabbit muscle actin, polymerized (F-actin) (rabbit, UniProt P68135 1-377); experiment: co-sedimentation

- Kd [1]: 1830 nM
B1: NtWLIM2–His (recombinant tobacco LIM protein WLIM2, 6xHis-tagged) (natural protein, Nicotiana tabacum (tobacco), UniProt P93356 1-189, looked up)
chain: MSFIGTQQKCKACEKTVYPVELLSADGVNYHKSCFKCSHCKGTLKLSNFSSMEGVLYCKPHFEQLFKESGNFNKNFQSPAKSAEKLTPELTRSPSKAAGMFSGTQEKCATCGKTAYPLEKVTVENQSYHKTCFKCSHGGCSLSPSNYAALNGILYCKPHFSQLFKEKGSYNHLIKSASMKRPAATVPDS
- stoichiometry N (SEC): 2
